T1: recombinant human TROP-2/human IgG Fc fused form (R&D Systems, Inc.) (human, UniProt P09758 27-274, limits assumed)
T1 construct: Bought reagent; also called TROP-2/Fc; not shown: human IgG Fc
T1 sequence (looked up): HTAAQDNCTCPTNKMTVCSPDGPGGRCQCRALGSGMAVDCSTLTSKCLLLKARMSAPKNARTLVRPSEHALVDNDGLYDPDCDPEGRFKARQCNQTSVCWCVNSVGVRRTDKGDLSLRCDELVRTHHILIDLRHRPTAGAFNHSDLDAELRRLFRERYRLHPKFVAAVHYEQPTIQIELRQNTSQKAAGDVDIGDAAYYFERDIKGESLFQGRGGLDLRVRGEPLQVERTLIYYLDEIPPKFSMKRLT

T2: human TROP2 on FaDu and HPAF-II cells (human, UniProt P09758 27-323)
T2 construct: whole, on cells
T2 sequence (looked up): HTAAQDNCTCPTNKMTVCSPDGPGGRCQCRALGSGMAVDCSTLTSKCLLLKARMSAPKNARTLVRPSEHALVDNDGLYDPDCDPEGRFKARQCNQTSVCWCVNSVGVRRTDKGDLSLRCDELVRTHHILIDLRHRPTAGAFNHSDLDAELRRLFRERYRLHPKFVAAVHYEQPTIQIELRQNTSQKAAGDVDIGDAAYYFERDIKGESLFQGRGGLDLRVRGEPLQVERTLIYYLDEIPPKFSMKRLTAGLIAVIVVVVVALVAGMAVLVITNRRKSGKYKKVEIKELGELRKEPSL

T3: human CD3εγ single-chain antigen (human)
T3 construct: also called scCD3εγ; His-scCD3 antigen
T3 chain: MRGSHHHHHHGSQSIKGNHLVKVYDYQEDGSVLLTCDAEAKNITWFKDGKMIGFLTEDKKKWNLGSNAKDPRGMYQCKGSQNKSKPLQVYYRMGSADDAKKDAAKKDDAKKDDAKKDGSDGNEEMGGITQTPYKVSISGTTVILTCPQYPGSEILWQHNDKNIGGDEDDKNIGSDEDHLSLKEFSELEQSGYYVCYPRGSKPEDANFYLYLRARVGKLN


Legend:
[1] = biological target: T1, recombinant human TROP-2/human IgG Fc …; assay: SPR (BIAcore 3000), TROP-2/Fc captured on anti-human IgG(Fc), bispecific as analyte, 1:1 binding model
Experimental: The bispecific molecule was assayed for its binding to TROP2 using BIAcore 3000 (GE Healthcare Bio-Sciences Corp.) by the capture method, which involves capturing the antigen by an anti-human IgG antibody and assaying the bispecific molecule as an analyte. The antigen used was recombinant human TROP-2/human IgG Fc fused form (R&D Systems, Inc.). Approximately 2000 RU of the anti-human IgG(Fc) antibody (Human Antibody Capture Kit, GE Healthcare Bio-Sciences Corp.) was covalently bound to a sensor chip CM5 (GE Healthcare Bio-Sciences Corp.) by the amine coupling method. Similarly, this antibody was immobilized onto a reference cell. The running buffer used was HBS-P (10 mM HEPES (pH 7.4), 0.15 M NaCl, and 0.005% Surfactant P20). The bispecific molecule was prepared at a 2-fold dilution ratio from 200 nM to 1 nM. A 1 μg/ml solution of the antigen was added onto the anti-human IgG(Fc) antibody-immobilized chip for approximately […]. Then, each concentration of the bispecific molecule was added at a flow rate of 30 μl/min for 300 seconds. Subsequently, the dissociation phase was monitored for 600 seconds. A 3 M magnesium chloride solution was added as a regenerating solution for 30 seconds. The data was analyzed using the 1:1 binding model of analytical software (BIAevaluation software, version 4.1.1) to calculate an association rate constant (ka), a dissociation rate constant (kd), and a dissociation constant (KD; KD=kd/ka).

[2] = biological target: T4, cynomolgus monkey CD3 on cynomolgus monkey PBMC or T cell line HSC-F (cynomolgus monkey, UniProt Q95LI5 22-198); assay: flow cytometry on cynomolgus monkey PBMC, Penta-His Alexa Fluor 488 detection, rMFI
T4 construct: whole, on cells; Native CD3 complex on monkey T cells; also called cynomolgus monkey CD3 (PBMC); cynomolgus monkey CD3 antigen
T4 sequence (Q95LI5 22-198): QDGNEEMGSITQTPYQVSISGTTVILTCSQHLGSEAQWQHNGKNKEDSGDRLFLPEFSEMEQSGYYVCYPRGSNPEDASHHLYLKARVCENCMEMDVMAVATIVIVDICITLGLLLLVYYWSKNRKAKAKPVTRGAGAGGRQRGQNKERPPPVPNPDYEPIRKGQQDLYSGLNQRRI

human CD3 on human PBMC [3] = biological target: T5, human CD3 on human PBMC (human, UniProt P07766 23-207); assay: flow cytometry on human PBMC (dead cells and CD19-positive cells excluded), Penta-His Alexa Fluor 488 detection, rMFI
T5 construct: Native CD3 complex on T cells in PBMC; the other chains of the complex are native; also called human CD3 (PBMC)

[4] = biological target: T2, human TROP2 on FaDu and HPAF-II cells; assay: flow cytometry on HPAF-II cells, Penta-His Alexa Fluor 488 detection, rMFI
[5] = biological target: T3, human CD3εγ single-chain antigen; assay: SPR (BIAcore 3000), human CD3εγ single-chain antigen immobilized, bispecific as analyte; KD from the amount bound at each concentration
Experimental: The bispecific molecule was assayed for its binding to the CD3εγ antigen using BIAcore 3000 (GE Healthcare Bio-Sciences Corp.) by a method which involves immobilizing the antigen and assaying the antibody as an analyte. […] Approximately 100 RU of the antigen was covalently bound to a sensor chip CM5 (GE Healthcare Bio-Sciences Corp.) by the amine coupling method. Immobilization treatment was performed without the addition of an antigenic protein as a reference cell. […] The bispecific molecule was prepared at a 2-fold dilution ratio from 1 μM (highest concentration) to 4 nM or at a 2-fold dilution ration from 200 nM to 1 nM. Each concentration of the bispecific molecule was added to the antigen-immobilized chip at a flow rate of […] for 25 minutes, and the amount of the bispecific molecule bound thereto was monitored. A 10 mM glycine-hydrochloric acid solution (pH 1.5) was added as a regenerating solution for 30 seconds. The data was analyzed using analytical software (BIAevaluation software, version 4.1.1) to calculate a dissociation constant KD from the amount of the bispecific molecule bound at each concentration.

[6] = biological target: T6, human CD3εδ expressed on transfected Lenti-X293T cells (human, UniProt P07766 23-207; P04234 22-171); assay: flow cytometry, hybridoma supernatant on hCD3ε/hCD3δ-transfected Lenti-X293T cells
T6 construct: Cells co-transfected with hCD3ε-pcDNA3.1 and hCD3δ-pcDNA3.1
Experimental: On the next day, hCD3ε-pcDNA3.1 and hCD3δ-pcDNA3.1 or a control pcDNA3.1-DEST was transfected to the Lenti-X293T cells using Lipofectamine 2000, and the cells were further cultured overnight at 37° C. under 5% CO₂ conditions. On the next day, the expression vector-transfected Lenti-X293T cells were treated with TrypLE Express (Thermo Fisher Scientific Inc.), washed with DMEM containing 10% FBS, and then adjusted to a concentration of 5×10⁶ cells/mL in PBS containing 5% FBS. The resulting cell suspension was used in flow cytometry analysis.
The hCD3δ-pcDNA3.1- and hCD3δ-pcDNA3.1-transfected Lenti-X293T cells or the pcDNA3.1-DEST-transfected Lenti-X293T cells were suspended by the addition of the hybridoma culture supernatant and left standing at 4° C. for 1 hour. The cells were washed once with PBS containing 5% FBS, then suspended by the addition of Anti-Rat IgG FITC conjugate (Sigma-Aldrich Corp.) diluted 500-fold with PBS containing 5% FBS, and left standing at 4° C. for 30 minutes. The cells were washed twice with PBS containing 5% FBS and then resuspended in PBS containing 5% FBS and 2 μg/ml 7-aminoactinomycin D (Molecular Probes, Inc.), followed by detection using a flow cytometer. The data was analyzed using Flowjo. After removal of 7-aminoactinomycin D-positive dead cells by gating, the FITC fluorescence intensity of live cells was plotted to a histogram.

[7] = biological target: T4, cynomolgus monkey CD3 on cynomolgus …; assay: flow cytometry, hybridoma supernatant on cynomolgus monkey T cell line HSC-F
Experimental: A cynomolgus monkey T cell line HSC-F (JCRB Cell Bank, No. JCRB1164) was adjusted to a concentration of 5×10⁶ cells/mL in an RPMI1640 medium containing FBS and added at a concentration of 100 μL/well to a 96-well plate. […] Then, the supernatant was removed, and the cells in the wells were washed once with PBS containing 5% FBS, then suspended by the addition of Anti-Rat IgG FITC conjugate diluted 500-fold with PBS containing 5% FBS, and left standing at 4° C. for 1 hour. The cells were washed three times with PBS containing 5% FBS and then resuspended in PBS containing 5% FBS and 2 μg/ml 7-aminoactinomycin D, followed by detection using a flow cytometer. The data was analyzed using Flowjo. After removal of 7-aminoactinomycin D-positive dead cells by gating, the FITC fluorescence intensity of live cells was plotted to a histogram.

[8] = biological target: T7, CD3 immobilized on a sensor chip (Example 7)-1-2); assay: SPR (BIAcore T-200), CD3 immobilized, scFv injected at five concentrations; concentration giving 1/2 Rmax
T7 construct: the text says only 'CD3 immobilized on a sensor chip'; also called human CD3
Experimental: Five different concentrations of the scFv were injected into CD3 immobilized on a sensor chip. Rmax was estimated from the resulting response, and the antibody concentration that reached 1/2 thereof was defined as the dissociation constant of the scFv for CD3.

[9] = biological target: T4, cynomolgus monkey CD3 on cynomolgus …; assay: flow cytometry on cynomolgus monkey PBMC
human CD3 on human PBMC [10] = biological target: T5, human CD3 on human PBMC; assay: flow cytometry on human PBMC, Penta-His Alexa Fluor 488 detection (rMFI)
Experimental: Commercially available human PBMC (Cellular Technology Ltd. (CTL)) was adjusted to an appropriate concentration with PBS containing 5% FBS. LIVE/DEAD Fixable Near-IR Dead Cell Stain Kit (Thermo Fisher Scientific Inc.) and an anti-CD19 antibody (Beckman Coulter Inc.) were added to the cells, which were then left standing at 4° C. for 30 minutes. The cells were washed twice with PBS containing 5% FBS, then adjusted to a concentration of 1×10⁶ cells/mL with PBS containing 5% FBS, added at a concentration of 100 μL/well to a 96-well U-bottomed microplate, and centrifuged to remove a supernatant. […] The cells were washed twice with PBS containing 5% FBS. Then, Penta-His Alexa Fluor 488 (Qiagen N.V.) diluted with PBS containing 5% FBS was added at a concentration of 30 μL/well, and the plate was left standing at 4° C. for 30 minutes. The cells were washed twice with PBS containing 5% FBS and then resuspended in PBS containing 5% FBS, followed by detection using a flow cytometer (FACSCanto™ II; Becton, Dickinson and Company). The data was analyzed using Flowjo (Tree Star Inc.). The mean fluorescence intensity (MFI) of Alexa Fluor 488 in a fraction free of dead cells and CD19-positive cells was calculated. The MFI value of the scFv-unsupplemented sample was subtracted from the MFI value of the scFv-supplemented sample to calculate a relative value of MFI (rMFI).

Row | Kd [1] | binding result [2] | EC50 (read off the curve) (human CD3 on human PBMC [3]) | Kd [5] | Binder | also measured
1 | 0.0119 µM | binds | ~0.01 µM | 0.126 µM | T2C-0005 (HT1-11 scFv/C3E-7035 bispecific molecule) (bispecific antibody, Tandem scFv; also called anti-TROP2-CD3 bispecific molecule) GQVQLVQSGAEVKKPGASVKVSCKASGYTFTTAGMQWVRQAPGQGLEWMGWINTHSGVPKYAEDFKGRVTISADTSTSTAYLQLSSLKSEDTAVYYCARSGFGSSYWYFDVWGQGTLVTVSSGGGGSGGGGSGGGGSDIQMTQSPSSLSASVGDRVTITCKASQDVSTAVAWYQQKPGKAPKLLIYSASYRYTGVPSRFSGSGSGTDFTLTISSLQPEDFAVYYCQQHYITPLTFGQGTKLEIKRTGGGGSEVQLVESGGGLVQPGGSLRLSCAASGVTFNYYGMSWIRQAPGKGLEWVASITNSGGRIYYPDSVKGRFTISRENTQKTLYLQMNSLRAEDTAVYYCTLDGRDGWVAYWGQGTLVTVSSGGGGSGGGGSGGGGSMAQAVLTQPSSVSGVPGQRVTISCKRNTGNIGSNYVNWYQQLPGTAPKLLIYRDDKRPSGVPDRFSGSKSGTSASLAITGFQAEDEADYYCQSYSSGFIFGGGTKLTVLGAAAGAGGDYKDDDDKGAAAHHHHHH | EC50 (read off the curve) [4]: ~0.01 µM
2 | 0.0128 µM | binds | ~0.001 µM | 0.0139 µM | T2C-0001 (HT1-11 scFv/C3E-7034 bispecific molecule) (bispecific antibody, Tandem scFv; also called anti-TROP2-CD3 bispecific molecule) GQVQLVQSGAEVKKPGASVKVSCKASGYTFTTAGMQWVRQAPGQGLEWMGWINTHSGVPKYAEDFKGRVTISADTSTSTAYLQLSSLKSEDTAVYYCARSGFGSSYWYFDVWGQGTLVTVSSGGGGSGGGGSGGGGSDIQMTQSPSSLSASVGDRVTITCKASQDVSTAVAWYQQKPGKAPKLLIYSASYRYTGVPSRFSGSGSGTDFTLTISSLQPEDFAVYYCQQHYITPLTFGQGTKLEIKRTGGGGSEVQLVESGGGLVQPGGSLRLSCAASGVTFNYYGMSWIRQAPGKGLEWVASITNSGGRIYYPDSVKGRFTISRENTQKTLYLQMNSLRAEDTAVYYCTLDGRDGWVAYWGQGTLVTVSSGGGGSGGGGSGGGGSNFMLTQPHSVSESPGKTVTISCKRNTGNIGSNYVNWYQQHEGSSPTTIIYRDDKRPDGVSDRFSGSIDRSSKSASLTISNLKTEDEADYFCQSYSSGFIFGGGTKLTVLGAAAGAGGDYKDDDDKGAAAHHHHHH | 
3 |  |  |  |  | rat anti-CD3 monoclonal antibody C3-147 (antibody, IgG2b, V domains shown, probably lambda; also called rat anti-human CD3 antibody) VH: EVQLVESGGGLVQPGRALKLSCVVSGVTFNYYGMSWIRQAPGKGLEWVASITNSGGRIYYPDSVKGRFTISRENTQKTLYLQMNSLRSEDTATYYCTLDGRDGWVAYWGQGTLVTVSS VL: QFVLTQPNSVSTNLGTTVELSCKRNTGNIGSNYVNWYQQHEGRSPTTIIYRDDKRPDGVSDRFSGSIDRSSKSALLTINNVQTEDEADYFCQSYSSGFIFGGGTKLTVL | binding result [6]: binds; binding result [7]: binds
4 |  |  |  |  | C3E-7036 (humanized anti-CD3 scFv) (scFv) scFv: GEVQLVESGGGLVQPGGSLRLSCAASGVTFNYYGMSWIRQAPGKGLEWVASITNSGGRIYYPDSVKGRFTISRENTQKTLYLQMNSLRAEDTAVYYCTLDGRDGWVAYWGQGTLVTVSSGGGGSGGGGSGGGGSNFMLTQPSSVSGVPGQRVTISCTGNTGNIGSNYVNWYQQLPGTAPKLLIYRDDKRPSGVPDRFSGSKSGTSASLAITGFQAEDEADYYCQSYSSGFIFGGGTKLTVLGAAAGAGGDYKDDDDKGAAAHHHHHH | Kd [8]: 0.025 µM; binding result [9]: binds; binding result (human CD3 on human PBMC [10]): binds
5 | 0.0093 µM | binds |  |  | T2C-0006 (HT1-11 scFv/C3E-7036 bispecific molecule) (bispecific antibody, Tandem scFv; also called anti-TROP2-CD3 bispecific molecule) GQVQLVQSGAEVKKPGASVKVSCKASGYTFTTAGMQWVRQAPGQGLEWMGWINTHSGVPKYAEDFKGRVTISADTSTSTAYLQLSSLKSEDTAVYYCARSGFGSSYWYFDVWGQGTLVTVSSGGGGSGGGGSGGGGSDIQMTQSPSSLSASVGDRVTITCKASQDVSTAVAWYQQKPGKAPKLLIYSASYRYTGVPSRFSGSGSGTDFTLTISSLQPEDFAVYYCQQHYITPLTFGQGTKLEIKRTGGGGSEVQLVESGGGLVQPGGSLRLSCAASGVTFNYYGMSWIRQAPGKGLEWVASITNSGGRIYYPDSVKGRFTISRENTQKTLYLQMNSLRAEDTAVYYCTLDGRDGWVAYWGQGTLVTVSSGGGGSGGGGSGGGGSNFMLTQPSSVSGVPGQRVTISCTGNTGNIGSNYVNWYQQLPGTAPKLLIYRDDKRPSGVPDRFSGSKSGTSASLAITGFQAEDEADYYCQSYSSGFIFGGGTKLTVLGAAAGAGGDYKDDDDKGAAAHHHHHH | binding result (human CD3 on human PBMC [3]): binds
